Results taken from US20070141570A1.

Biological target: RIa isoform of PKA (type I alpha regulatory subunit of cAMP-dependent protein kinase)
Test: binding in vitro, method not described

Substance: D-AKAP2 (AKAP10) Ile variant, isoleucine at position 646 of SEQ ID NO:2 (from UniProt O43572 507-662)
- fold weaker binding than the Val variant: 3 fold
